Measurements: patent publication US20240270826A1 (NATIONAL RESEARCH COUNCIL OF CANADA, published 2024)

B1: NRCoV2-MRed05 VHH-Fc (Fc fusion)
chain: EVQLVESGGGLVQPGGSLRLSCAASGFTLDYYAIGWFRQAPGKEREGVSCISSSDGSTLYADSVKGRFTISRDNAKNTVYLQMNSLKPEDTAVYYCATGPQAYYSGSYYFQCPQAGMDYWGKGTQVTVSS
notes: bivalent VHH-Fc
B2: NRCoV2-12 VHH-Fc (Fc fusion)
chain: EVQLQQSGGGLVQAGGSLRLSCAASGRTFRNYVMGWFRQAPQAPGKDHEFVAAISWGGTEIYYADSVKGRFTISRDNAKNTVYLQMNSLKPEDTAVYYCAADRGLSYYYTRTTEYNYWGQGTQVTVSS
notes: bivalent VHH-Fc
B3: NRCoV2-15 VHH-Fc (Fc fusion)
chain: EVQLVSSGGGLVEAGGSLRLSCIASGSTSGRNTMGWFRQAPGKQREWVAIVSTSGATNYAGSVKGRFTLSRDNAKNAVYLQMNNLKPEDTAVYYCYAAYGGGGDYWGQGTQVTVSS
notes: bivalent VHH-Fc
B4: NRCoV2-MRed04 VHH-Fc (Fc fusion)
chain: EVQLVESGGGLVQPGRSLRLSCAASGNSFSISTMGWFRQAPGKERELVASIWSDTTTSYADSVKGRFTISTDNTRTKVYLQMSSLNPEDTAVYYCAADRGFVVRGQYDYWGQGTQVTVSS
notes: bivalent VHH-Fc
B5: NRCoV2-SR13 VHH-Fc (Fc fusion)
chain: EVQLVESGGGLVTTGGSLRLSCATSGSRFGSKHMAWYRQAPGKQRDLVAAISSGGSTHYGSSVKGRFTISRDNAKSTVYLQMNSLNPEDTAVFYCNMGGWDYRSNTYIPGSRSDYWGQGTQVTVSS
notes: bivalent VHH-Fc
B6: NRCoV2-18 VHH-Fc (Fc fusion)
chain: EVQLVESGGGLVQAGGSLRLSCVASGITISGYNMAWWRQTRGKQTERVAFINSGGSTTYSDSVKGRFTISRDNGKNTAYLQMNSLNAEDTADYFCSLHTSHDYWGQGTQVTVSS
notes: bivalent VHH-Fc
B7: NRCoV2-10 VHH-Fc (Fc fusion)
chain: QLQLQESGGGLVQPGGSLTLSCAASGNTFSRSNMHWYRQAPGAQREWVAAISSRGISTYAYSAKGRFTISRDNAKNTVSLQMNSLKPEDTAVYYCYAADDLGDYWGQGTQVTVSS
notes: bivalent VHH-Fc
B8: NRCoV2-SR02 VHH-Fc (Fc fusion)
chain: EVQLVDSGGGLVQAGGSLRLSCTASEFTLNYYSIGWFRQSPGKEREGVSCIRYSGGGIDYADSVKGRFTISRDNAKNTVYLTMNSLKPEDTAVYYCAADRLYSRACPTAGGRNYWGQGTQVTVSS
notes: bivalent VHH-Fc
B9: NRCoV2-14 VHH-Fc (Fc fusion)
chain: EVQLVSSGGGLVQAGGSLRLSCEASGTTFSHYAVGWYRQAPGKQREWVASISVFGSTTYGGSVAGRFTISRDNDKNTVDLQMNSLKPEDTAVYYCHAVNADIGGDYWGQGTQVTVSS
notes: bivalent VHH-Fc
B10: NRCoV2-02 VHH-Fc (Fc fusion)
chain: EVQLVESGGGLVQAGGSLRLSCAASGFTFSNYAMNWVRQAPGKGLEWVSGISGRGDDTRYADSVKGRFTISRDNAKNTLFLQMRSLRPEDTGVYRCTKGPDLYYFGSGYSDRGQGTQVTVSS
notes: bivalent VHH-Fc
B11: NRCoV2-11 VHH-Fc (Fc fusion)
chain: EVQLVSSGGGLVQPGGSLRLSCAASGSSLDSYSVSWFRQAPGKEREWISFISRYYSSTYYTDSVKGRFTTSRDGDQKTVHLQMNSLKPEDTAVYYCAARSRDFSSPFSATDTYTSWGQGTQVTVSS
notes: bivalent VHH-Fc
B12: NRCoV2-1d VHH-Fc (Fc fusion)
chain: EVQLVESGGGSVQPGGSLRLSCAASGSTLDYYAIGWFRQAPGKEREWVSSVSSSDGNTLYADSVKGRFTISRDNAKNTVYLQMNSLKAEDTAVYVCAADYSMRPFAVGRWHRDYEYWGQGTQVTVSS
notes: bivalent VHH-Fc
B13: NRCoV2-SR01 VHH-Fc (Fc fusion)
chain: EVQLVQSGGGSVQAGGSLRLSCVASGFTFDNYAIGWFRQAPGKEREGVSCISGNGGVTIYADSVKGRFTISRDNAKNLVYLQMNSLKPEDTAVYYCAATGIRSTWSVYGCSRLAGPYDYWGQGTQVTVSS
notes: bivalent VHH-Fc
B14: NRCoV2-20 VHH-Fc (Fc fusion)
chain: EVQLQQSGGGLVQPGGSLRLSCAASGRTFSNYVVGWFRQAPQAPGKDHEFVAVISGSDTETYYADSVKGRFTISRDNAKNTVYLQMNSLKPEDTAVYYCAADRGMSYYYTRATEYYYWGQGTQVTVSS
notes: bivalent VHH-Fc
B15: NRCoV2-04 VHH-Fc (Fc fusion)
chain: AVQLVDSGGGLVQPGGSLRLSCAASGSPFSNVVMAWYRQAPGKQRERVAFISGGGIADYIMSVKGRFTISRDNAKNTVYLQMNSLKPEDTAVYYCWSSYESTWGQGTQVTVSS
notes: bivalent VHH-Fc
B16: NRCoV2-07 VHH-Fc (Fc fusion)
chain: QVQLVQSGGGLVQPGGSLRLSCAASGVTLDYYAIGWFRQAPGKEREAVSCISSNGRRNHYVASVRGRFTISRDNAKSTVYLQMNSLKPEDTAVYYCAAVQDVHGDNYYCTSPNEYNVWGQGTQVTVSS
notes: bivalent VHH-Fc
B17: NRCoV2-05 VHH-Fc (Fc fusion)
chain: EVKLVQSGGGLVQPGGSLRLSCAASGFIFSNYAMNWVRQAPGKGLEWVSGINSGGGDTRYADSVKGRFTVSRDNAKNTLYLQMNSLKPEDTGVYYCSKGPVSSYYGSGYDYRGQGTQVTVSS
notes: bivalent VHH-Fc
B18: NRCoV2-17 VHH-Fc (Fc fusion)
chain: EVQLQQSGGGLVQTGGSLRLSCAAAGSPFSQLAMSWYRQISGKERAWVASISPTGNRSYSKIAKGRFTISRDNAKNTVTLQMTSLKPEDTAAYICQAANVNGGDYWGQGTQVTVSS
notes: bivalent VHH-Fc
B19: NRCoV2-15 VHH-Fc (Fc fusion)
chain: EVQLVSSGGGLVEAGGSLRLSCIASGSTSGRNTMGWFRQAPGKQREWVAIVSTSGATNYAGSVKGRFTLSRDNAKNAVYLQMNNLKPEDTAVYYCYAAYGGGGDYWGQGTQVTVSS
notes: bivalent VHH-Fc
B20: NRCoV2-10 VHH-Fc (Fc fusion)
chain: QLQLQESGGGLVQPGGSLTLSCAASGNTFSRSNMHWYRQAPGAQREWVAAISSRGISTYAYSAKGRFTISRDNAKNTVSLQMNSLKPEDTAVYYCYAADDLGDYWGQGTQVTVSS
notes: bivalent VHH-Fc
B21: NRCoV2-14 VHH-Fc (Fc fusion)
chain: EVQLVSSGGGLVQAGGSLRLSCEASGTTFSHYAVGWYRQAPGKQREWVASISVFGSTTYGGSVAGRFTISRDNDKNTVDLQMNSLKPEDTAVYYCHAVNADIGGDYWGQGTQVTVSS
notes: bivalent VHH-Fc
B22: NRCoV2-11 VHH-Fc (Fc fusion)
chain: EVQLVSSGGGLVQPGGSLRLSCAASGSSLDSYSVSWFRQAPGKEREWISFISRYYSSTYYTDSVKGRFTTSRDGDQKTVHLQMNSLKPEDTAVYYCAARSRDFSSPFSATDTYTSWGQGTQVTVSS
notes: bivalent VHH-Fc
B23: NRCoV2-SR01 VHH-Fc (Fc fusion)
chain: EVQLVQSGGGSVQAGGSLRLSCVASGFTFDNYAIGWFRQAPGKEREGVSCISGNGGVTIYADSVKGRFTISRDNAKNLVYLQMNSLKPEDTAVYYCAATGIRSTWSVYGCSRLAGPYDYWGQGTQVTVSS
notes: bivalent VHH-Fc
B24: NRCoV2-20 VHH-Fc (Fc fusion)
chain: EVQLQQSGGGLVQPGGSLRLSCAASGRTFSNYVVGWFRQAPQAPGKDHEFVAVISGSDTETYYADSVKGRFTISRDNAKNTVYLQMNSLKPEDTAVYYCAADRGMSYYYTRATEYYYWGQGTQVTVSS
notes: bivalent VHH-Fc
B25: NRCoV2-12 VHH-Fc (Fc fusion)
chain: EVQLQQSGGGLVQAGGSLRLSCAASGRTFRNYVMGWFRQAPQAPGKDHEFVAAISWGGTEIYYADSVKGRFTISRDNAKNTVYLQMNSLKPEDTAVYYCAADRGLSYYYTRTTEYNYWGQGTQVTVSS
notes: bivalent VHH-Fc
B26: NRCoV2-04 VHH-Fc (Fc fusion)
chain: AVQLVDSGGGLVQPGGSLRLSCAASGSPFSNVVMAWYRQAPGKQRERVAFISGGGIADYIMSVKGRFTISRDNAKNTVYLQMNSLKPEDTAVYYCWSSYESTWGQGTQVTVSS
notes: bivalent VHH-Fc
B27: NRCoV2-17 VHH-Fc (Fc fusion)
chain: EVQLQQSGGGLVQTGGSLRLSCAAAGSPFSQLAMSWYRQISGKERAWVASISPTGNRSYSKIAKGRFTISRDNAKNTVTLQMTSLKPEDTAAYICQAANVNGGDYWGQGTQVTVSS
notes: bivalent VHH-Fc

Target: SARS-CoV-2 spike protein S on live virus, Alpha variant (SARS-CoV-2 (Alpha variant), UniProt P0DTC2 14-1273)
Test: cell-based or functional assay

For B1, which “LVNA IC50” value is on record?
The value was 0.13 nM.

With B2 as the binder, how does the “LVNA IC50” value read?
Its value is 1.35 nM.

B3 was tested. Which “LVNA IC50” value did it give?
The value was 0.16 nM.

Which “LVNA IC50” value does the source give for B4 here?
Its value is 4.5 nM.

Which “LVNA IC50” value does the source give for B5 here?
Its value is about 100 nM.

For B6, which “LVNA IC50” value is on record?
Its value is 2.82 nM.

With B7 as the binder, how does the “LVNA IC50” value read?
The value was 0.47 nM.

How did the “LVNA IC50” value turn out when B8 was run?
The value was 9.05 nM.

How did the “LVNA IC50” value turn out when B9 was run?
The value was 0.88 nM.

B10 was tested. Which “LVNA IC50” value did it give?
Its value is 0.09 nM.

B11 was tested. Which “LVNA IC50” value did it give?
The value was 2.3 nM.

Which “LVNA IC50” value does the source give for B12 here?
Its value is 0.37 nM.

How did the “LVNA IC50” value turn out when B13 was run?
Its value is 3.77 nM.

How did the “LVNA IC50” value turn out when B14 was run?
Its value is 1.94 nM.

With B15 as the binder, how does the “LVNA IC50” value read?
The value was 2.3 nM.

How did the “LVNA IC50” value turn out when B16 was run?
Its value is 0.42 nM.

B17 was tested. Which “LVNA IC50” value did it give?
Its value is 0.03 nM.

With B18 as the binder, how does the “LVNA IC50” value read?
The value was 0.61 nM.

Target: Human SARS-CoV-2 Omicron (B.1.1.529) S (SARS-CoV-2 (Omicron variant))
Test: flow cytometry SVNA: VHH-Fc inhibits S binding to ACE2 on Vero E6 cells

How did the IC50 turn out when B19 was run?
Its IC50 is 3 nM.

How did the IC50 turn out when B20 was run?
Its IC50 is 4.3 nM.

How did the IC50 turn out when B21 was run?
Its IC50 is 5.2 nM.

With B22 as the binder, how does the IC50 read?
The IC50 was 8.8 nM.

B23 was tested. Which IC50 did it give?
The IC50 was 4.4 nM.

With B24 as the binder, how does the IC50 read?
Its IC50 is 13.1 nM.

How did the IC50 turn out when B25 was run?
Its IC50 is 17.2 nM.

How did the IC50 turn out when B26 was run?
The IC50 was 18.4 nM.

For B27, which IC50 is on record?
Its IC50 is 3.4 nM.
